From the supplement of paper PMC9112550, “Optimization of the antimicrobial peptide Bac7 by deep mutational scanning” (BMC Biology, 2022)

system: Escherichia coli TOP10; test: shrunken log2 fold change of peptide-encoding DNA abundance (4.5 h post-induction vs induction); higher = less antimicrobial activity (less host growth inhibition); conditions: time post-induction: 4.5 h; library: site-saturation at positions 5, 18, 19, 20
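Further: peptides expressed intracellularly from a pBAD plasmid library in pooled LB shake-flask culture, induced with 0.3% L-arabinose, DNA abundance read by NGS, three biological replicates, DESeq2 with apeglm shrinkage.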

Row | Sequence | shrunken log2 fold change
1 | RRIRDRPPRLPRPRPRPYTIPRP | -0.0747
2 | RRIRYRPPRLPRPRPRPVWLPRP | -0.0438
3 | RRIRRRPPRLPRPRPRPELPPRP | 0.695
4 | RRIRKRPPRLPRPRPRPMYSPRP | -0.11
5 | RRIRWRPPRLPRPRPRPNAPPRP | 0.328
6 | RRIRKRPPRLPRPRPRPKPYPRP | 0.307
7 | RRIRLRPPRLPRPRPRPWYIPRP | -0.137
8 | RRIRCRPPRLPRPRPRPIKEPRP | -0.0741
9 | RRIRFRPPRLPRPRPRPWPLPRP | -0.0977
10 | RRIRYRPPRLPRPRPRPCLPPRP | -0.409
11 | RRIRQRPPRLPRPRPRPFDAPRP | -0.0632
12 | RRIRQRPPRLPRPRPRPWREPRP | -0.0373
13 | RRIRFRPPRLPRPRPRPEQRPRP | -0.0295
14 | RRIRMRPPRLPRPRPRPLYEPRP | 0.362
15 | RRIRERPPRLPRPRPRPLGTPRP | -0.0681
16 | RRIRHRPPRLPRPRPRPEFAPRP | 0.0409
17 | RRIRPRPPRLPRPRPRPSAAPRP | 0.487
18 | RRIRKRPPRLPRPRPRPHTVPRP | -0.407
19 | RRIRTRPPRLPRPRPRPDQVPRP | -0.272
20 | RRIRMRPPRLPRPRPRPPSPPRP | 1.57
21 | RRIRKRPPRLPRPRPRPWDLPRP | -0.136
22 | RRIRQRPPRLPRPRPRPLFDPRP | -0.607
23 | RRIRERPPRLPRPRPRPEFRPRP | -0.274
24 | RRIRIRPPRLPRPRPRPKWIPRP | -0.77
25 | RRIRKRPPRLPRPRPRPPKIPRP | 0.405

Row | Sequence | shrunken log2 fold change
26 | RRIRMRPPRLPRPRPRPVKKPRP | 0.0481
27 | RRIRMRPPRLPRPRPRPKLRPRP | -0.0111
28 | RRIRARPPRLPRPRPRPLPLPRP | 0.186
29 | RRIRVRPPRLPRPRPRPNNEPRP | -0.301
30 | RRIRLRPPRLPRPRPRPMDIPRP | -0.568
31 | RRIRKRPPRLPRPRPRPADNPRP | 0.0284
32 | RRIRNRPPRLPRPRPRPQCGPRP | -0.241
33 | RRIRPRPPRLPRPRPRPKPGPRP | 0.684
34 | RRIRPRPPRLPRPRPRPYDWPRP | 0.0551
35 | RRIRFRPPRLPRPRPRPCCDPRP | -0.239
36 | RRIRTRPPRLPRPRPRPAISPRP | 0.09
37 | RRIRMRPPRLPRPRPRPSIPPRP | -0.316
38 | RRIRQRPPRLPRPRPRPTLHPRP | 0.0326
39 | RRIRYRPPRLPRPRPRPCGIPRP | -0.00192
40 | RRIRERPPRLPRPRPRPFEGPRP | -0.105
41 | RRIRVRPPRLPRPRPRPVGSPRP | 0.289
42 | RRIRCRPPRLPRPRPRPHVMPRP | -0.743
43 | RRIRRRPPRLPRPRPRPMGQPRP | 0.267
44 | RRIRLRPPRLPRPRPRPMMAPRP | -0.137
45 | RRIRDRPPRLPRPRPRPRQTPRP | 0.612
46 | RRIRQRPPRLPRPRPRPRHRPRP | 0.16
47 | RRIRERPPRLPRPRPRPRREPRP | 0.0467
48 | RRIRRRPPRLPRPRPRPIKEPRP | 0.0124
49 | RRIRVRPPRLPRPRPRPDSIPRP | -0.149
50 | RRIRNRPPRLPRPRPRPPNEPRP | 0.217

Row | Sequence | shrunken log2 fold change
51 | RRIRVRPPRLPRPRPRPGLPPRP | 0.113
52 | RRIRERPPRLPRPRPRPAMFPRP | -1.09
53 | RRIRSRPPRLPRPRPRPVHNPRP | 0.0673
54 | RRIRWRPPRLPRPRPRPARSPRP | 0.252
55 | RRIRFRPPRLPRPRPRPHTMPRP | -0.459
56 | RRIRTRPPRLPRPRPRPEYNPRP | -0.395
57 | RRIRFRPPRLPRPRPRPVNHPRP | -0.384
58 | RRIRQRPPRLPRPRPRPLTKPRP | 0.184
59 | RRIRRRPPRLPRPRPRPLYWPRP | 0.0153
60 | RRIRQRPPRLPRPRPRPYNMPRP | -0.316
61 | RRIRKRPPRLPRPRPRPNMDPRP | -0.0504
62 | RRIRRRPPRLPRPRPRPGFWPRP | 0.333
63 | RRIRHRPPRLPRPRPRPCGMPRP | -0.0838
64 | RRIRERPPRLPRPRPRPTQDPRP | 0.217
65 | RRIRMRPPRLPRPRPRPYWDPRP | -0.0427
66 | RRIRIRPPRLPRPRPRPDSDPRP | -0.0273
67 | RRIRSRPPRLPRPRPRPANTPRP | -0.268
68 | RRIRMRPPRLPRPRPRPHFWPRP | 0.774
69 | RRIRIRPPRLPRPRPRPSWQPRP | 0.144
70 | RRIRGRPPRLPRPRPRPRFIPRP | 0.123
71 | RRIRDRPPRLPRPRPRPHNEPRP | -0.701
72 | RRIRSRPPRLPRPRPRPTMKPRP | -0.128
73 | RRIRSRPPRLPRPRPRPHGYPRP | -0.244
74 | RRIRMRPPRLPRPRPRPWCNPRP | -0.016
75 | RRIRVRPPRLPRPRPRPKNMPRP | -0.866

Row | Sequence | shrunken log2 fold change
76 | RRIRPRPPRLPRPRPRPFDDPRP | -0.189
77 | RRIRQRPPRLPRPRPRPNHAPRP | -0.474
78 | RRIRERPPRLPRPRPRPEAGPRP | 0.0425
79 | RRIRIRPPRLPRPRPRPNIEPRP | -0.0607
80 | RRIRDRPPRLPRPRPRPHRMPRP | 0.0707
81 | RRIRVRPPRLPRPRPRPVTGPRP | -0.233
82 | RRIRHRPPRLPRPRPRPLVPPRP | -0.0575
83 | RRIRKRPPRLPRPRPRPYCRPRP | -0.214
84 | RRIRCRPPRLPRPRPRPHAPPRP | 0.0482
85 | RRIRVRPPRLPRPRPRPNMEPRP | -0.151
86 | RRIRHRPPRLPRPRPRPWKLPRP | -0.185
87 | RRIRIRPPRLPRPRPRPHNPPRP | -1.23
88 | RRIRRRPPRLPRPRPRPYVCPRP | -0.374
89 | RRIRARPPRLPRPRPRPVTHPRP | 0.105
90 | RRIRHRPPRLPRPRPRPFKAPRP | -0.0378
91 | RRIRFRPPRLPRPRPRPWTVPRP | -0.0388
92 | RRIRPRPPRLPRPRPRPMLDPRP | 0.071
93 | RRIRCRPPRLPRPRPRPTCNPRP | -0.265
94 | RRIRGRPPRLPRPRPRPCQFPRP | 0.33
95 | RRIRGRPPRLPRPRPRPQMMPRP | 0.112
96 | RRIRVRPPRLPRPRPRPASYPRP | 0.0708
97 | RRIRSRPPRLPRPRPRPLVVPRP | 0.268
98 | RRIRKRPPRLPRPRPRPHRPPRP | 0.172
99 | RRIRLRPPRLPRPRPRPFGEPRP | 0.084
100 | RRIRIRPPRLPRPRPRPMLTPRP | -0.00363

Row | Sequence | shrunken log2 fold change
101 | RRIRKRPPRLPRPRPRPIEAPRP | 0.0321
102 | RRIRGRPPRLPRPRPRPSNHPRP | -0.145
103 | RRIRFRPPRLPRPRPRPGLIPRP | -0.0301
104 | RRIRDRPPRLPRPRPRPERWPRP | 1.3
105 | RRIRGRPPRLPRPRPRPSRHPRP | 0.0789
106 | RRIRLRPPRLPRPRPRPYEYPRP | -0.132
107 | RRIRQRPPRLPRPRPRPFYIPRP | 0.0172
108 | RRIRWRPPRLPRPRPRPTGAPRP | 0.337
109 | RRIRNRPPRLPRPRPRPSNCPRP | -0.801
110 | RRIRCRPPRLPRPRPRPKYIPRP | -0.828
111 | RRIRARPPRLPRPRPRPAVFPRP | 0.679
112 | RRIRKRPPRLPRPRPRPSNAPRP | -0.154
113 | RRIRLRPPRLPRPRPRPPDWPRP | 0.427
114 | RRIRVRPPRLPRPRPRPQYRPRP | -0.134
115 | RRIRPRPPRLPRPRPRPDWQPRP | -0.0976
116 | RRIRSRPPRLPRPRPRPPICPRP | 0.635
117 | RRIRLRPPRLPRPRPRPWQGPRP | -0.00192
118 | RRIRYRPPRLPRPRPRPAICPRP | 0.0426
119 | RRIRDRPPRLPRPRPRPSFSPRP | -0.0351
120 | RRIRRRPPRLPRPRPRPRFAPRP | 0.616
121 | RRIRARPPRLPRPRPRPWNGPRP | 0.0566
122 | RRIRMRPPRLPRPRPRPESPPRP | 2.01
123 | RRIRSRPPRLPRPRPRPRLTPRP | 0.0483
124 | RRIRQRPPRLPRPRPRPWYGPRP | -0.191
125 | RRIRIRPPRLPRPRPRPACLPRP | -0.228

Row | Sequence | shrunken log2 fold change
126 | RRIRNRPPRLPRPRPRPKYTPRP | -0.63
127 | RRIRKRPPRLPRPRPRPYFWPRP | -0.0468
128 | RRIRQRPPRLPRPRPRPCVTPRP | -0.141
129 | RRIRTRPPRLPRPRPRPNCQPRP | -0.369
130 | RRIRKRPPRLPRPRPRPCMAPRP | 0.0448
131 | RRIRKRPPRLPRPRPRPKYCPRP | -0.632
132 | RRIRMRPPRLPRPRPRPRPRPRP | 1.68
133 | RRIRHRPPRLPRPRPRPCTSPRP | -0.0185
134 | RRIRWRPPRLPRPRPRPQKMPRP | -0.0924
135 | RRIRQRPPRLPRPRPRPLAMPRP | 0.294
136 | RRIRFRPPRLPRPRPRPWFCPRP | 3.7
137 | RRIRSRPPRLPRPRPRPDHQPRP | -0.263
138 | RRIRYRPPRLPRPRPRPNHCPRP | 0.00938
139 | RRIRVRPPRLPRPRPRPALSPRP | 0.414
140 | RRIRNRPPRLPRPRPRPQNAPRP | -0.011
141 | RRIRERPPRLPRPRPRPWAEPRP | 0.0285
142 | RRIRPRPPRLPRPRPRPLNGPRP | -0.0765
143 | RRIRYRPPRLPRPRPRPAAIPRP | -0.092
144 | RRIRQRPPRLPRPRPRPEQWPRP | 0.222
145 | RRIRSRPPRLPRPRPRPAMFPRP | -0.0843
146 | RRIRLRPPRLPRPRPRPITAPRP | -0.0526
147 | RRIRRRPPRLPRPRPRPWGGPRP | 0.53
148 | RRIRNRPPRLPRPRPRPIIQPRP | -0.481
149 | RRIRERPPRLPRPRPRPRLSPRP | 0.134
150 | RRIRFRPPRLPRPRPRPPIYPRP | -0.416
